# Experimental data: US20210171647A1 (WUXI BIOLOGICS SHANGHAI, published 2021)
# Assays:
# Test in all cases: ELISA, antibody coated, OX40-ECD.His mutant supernatant; relative to silent alanine substitutions;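 note: captured OX40 mutant protein detected with HRP-labelled anti-His antibody, absorbance read-out, scaled to the mean signal of control mutants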
# human OX40-ECD.His Q60A = target: T1, human OX40-ECD.His Q60A (human, UniProt P43489 29-214)
# T1 construct: extracellular domain; not shown: C-terminal His-tag
# T1 sequence (looked up): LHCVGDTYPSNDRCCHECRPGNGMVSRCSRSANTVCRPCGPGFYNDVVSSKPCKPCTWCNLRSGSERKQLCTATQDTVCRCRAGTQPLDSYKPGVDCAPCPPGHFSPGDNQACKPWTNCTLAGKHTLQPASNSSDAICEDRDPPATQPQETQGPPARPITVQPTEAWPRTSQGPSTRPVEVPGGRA
# human OX40-ECD.His S38A = target: T2, human OX40-ECD.His S38A (human, UniProt P43489 29-214)
# T2 construct: extracellular domain; not shown: C-terminal His-tag
# T2 sequence (looked up): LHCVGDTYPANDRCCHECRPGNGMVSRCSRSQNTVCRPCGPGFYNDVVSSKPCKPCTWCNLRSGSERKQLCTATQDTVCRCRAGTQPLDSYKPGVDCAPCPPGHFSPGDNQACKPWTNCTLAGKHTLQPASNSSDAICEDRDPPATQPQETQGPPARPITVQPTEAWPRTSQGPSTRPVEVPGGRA
# human OX40-ECD.His E94A = target: T3, human OX40-ECD.His E94A (human, UniProt P43489 29-214)
# T3 construct: extracellular domain; not shown: C-terminal His-tag
# T3 sequence (looked up): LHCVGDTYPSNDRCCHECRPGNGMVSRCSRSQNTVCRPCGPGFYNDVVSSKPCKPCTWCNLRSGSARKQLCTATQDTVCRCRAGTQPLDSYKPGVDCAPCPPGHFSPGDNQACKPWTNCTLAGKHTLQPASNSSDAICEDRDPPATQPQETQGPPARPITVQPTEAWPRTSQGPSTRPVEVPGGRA
# human OX40-ECD.His K142A = target: T4, human OX40-ECD.His K142A (human, UniProt P43489 29-214)
# T4 construct: extracellular domain; not shown: C-terminal His-tag
# T4 sequence (looked up): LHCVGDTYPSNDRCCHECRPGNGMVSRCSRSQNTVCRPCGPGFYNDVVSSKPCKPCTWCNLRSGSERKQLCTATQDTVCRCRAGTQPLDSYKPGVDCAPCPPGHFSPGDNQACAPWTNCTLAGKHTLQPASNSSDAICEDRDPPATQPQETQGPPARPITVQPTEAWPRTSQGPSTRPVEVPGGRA
# human OX40-ECD.His P66A = target: T5, human OX40-ECD.His P66A (human, UniProt P43489 29-214)
# T5 construct: extracellular domain; not shown: C-terminal His-tag
# T5 sequence (looked up): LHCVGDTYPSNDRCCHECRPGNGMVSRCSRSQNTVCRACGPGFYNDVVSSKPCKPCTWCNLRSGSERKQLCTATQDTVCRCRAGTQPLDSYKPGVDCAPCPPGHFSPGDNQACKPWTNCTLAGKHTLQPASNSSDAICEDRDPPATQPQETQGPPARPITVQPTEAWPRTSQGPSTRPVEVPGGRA
# human OX40-ECD.His V123A = target: T6, human OX40-ECD.His V123A (human, UniProt P43489 29-214)
# T6 construct: extracellular domain; not shown: C-terminal His-tag
# T6 sequence (looked up): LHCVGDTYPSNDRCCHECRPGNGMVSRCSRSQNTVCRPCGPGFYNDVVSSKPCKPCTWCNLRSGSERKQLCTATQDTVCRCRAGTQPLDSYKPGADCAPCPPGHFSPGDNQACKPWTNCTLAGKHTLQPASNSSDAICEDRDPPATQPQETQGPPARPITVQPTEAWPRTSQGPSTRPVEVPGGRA
# human OX40-ECD.His N138A = target: T7, human OX40-ECD.His N138A (human, UniProt P43489 29-214)
# T7 construct: extracellular domain; not shown: C-terminal His-tag
# T7 sequence (looked up): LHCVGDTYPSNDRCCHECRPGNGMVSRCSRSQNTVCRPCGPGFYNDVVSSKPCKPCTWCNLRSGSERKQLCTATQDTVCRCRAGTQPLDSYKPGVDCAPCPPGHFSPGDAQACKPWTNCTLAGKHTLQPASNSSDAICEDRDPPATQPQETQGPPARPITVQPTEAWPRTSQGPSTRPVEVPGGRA
# human OX40-ECD.His L155A = target: T8, human OX40-ECD.His L155A (human, UniProt P43489 29-214)
# T8 construct: extracellular domain; not shown: C-terminal His-tag
# T8 sequence (looked up): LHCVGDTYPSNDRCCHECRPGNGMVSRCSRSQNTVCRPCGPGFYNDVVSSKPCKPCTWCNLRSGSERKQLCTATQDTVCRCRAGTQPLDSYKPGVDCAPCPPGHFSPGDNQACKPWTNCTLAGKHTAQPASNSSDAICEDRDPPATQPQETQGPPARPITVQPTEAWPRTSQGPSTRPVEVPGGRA
# human OX40-ECD.His P157A = target: T9, human OX40-ECD.His P157A (human, UniProt P43489 29-214)
# T9 construct: extracellular domain; not shown: C-terminal His-tag
# T9 sequence (looked up): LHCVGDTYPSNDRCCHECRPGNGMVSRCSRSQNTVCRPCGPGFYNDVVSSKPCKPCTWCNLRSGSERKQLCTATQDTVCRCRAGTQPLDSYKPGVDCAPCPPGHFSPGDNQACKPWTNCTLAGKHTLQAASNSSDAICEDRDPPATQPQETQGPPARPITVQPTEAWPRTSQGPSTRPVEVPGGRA
# human OX40-ECD.His Y36A = target: T10, human OX40-ECD.His Y36A (human, UniProt P43489 29-214)
# T10 construct: extracellular domain; not shown: C-terminal His-tag
# T10 sequence (looked up): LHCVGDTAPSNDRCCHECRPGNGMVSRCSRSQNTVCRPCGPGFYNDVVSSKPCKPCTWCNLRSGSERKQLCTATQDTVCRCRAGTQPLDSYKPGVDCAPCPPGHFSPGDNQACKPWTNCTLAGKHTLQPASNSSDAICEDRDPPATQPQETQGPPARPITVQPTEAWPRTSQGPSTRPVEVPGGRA
binder,measurement,setting,value
"1.134.9-u1-IgG1L (antibody, V domains shown, fully human IgG1, lambda) VH: QVQLQESGPGLVKPSGTLSLTCAVSGGSISSYNWWSWVRQPPGKGLEWIGEIYHGGNTNYNPSLKSRVTMSVDNSKNQFSLKLSSVTAADTAVYYCARAPGDWGGSPYFDFWGQGTLVTVSS VL: SSELTQDPAVSVALGQTVRITCQGDNLRTYYASWYQQKPGQAPILLIYGRNKRPSGIPDRFSGSSSGNTASLTITGAQAEDEAAYYCNSRDSSGNPVVFGGGTKLTVL",Fold Change,human OX40-ECD.His Q60A,0.971
same,Fold Change,human OX40-ECD.His S38A,0.997
same,Fold Change,human OX40-ECD.His E94A,0.716
same,Fold Change,human OX40-ECD.His K142A,0.921
same,Fold Change,human OX40-ECD.His P66A,0.913
same,Fold Change,human OX40-ECD.His V123A,1
same,Fold Change,human OX40-ECD.His N138A,0.73
same,Fold Change,human OX40-ECD.His L155A,0.959
same,Fold Change,human OX40-ECD.His P157A,0.992
same,Fold Change,human OX40-ECD.His Y36A,1
